Test results taken from a protein production outcome set (Wang et al. 2014).

Test: label from the status in PepcDB records

Sequence | protein production
MTTLVPLNRIDSQKIEDLLDIGFGKDRHGRTAYRLRQGVSAIPELSFAAVDGDILQGIIQCWPIRLSCLNGKKLPMILLGPVAVHPDYQGHGIGQTLVQHSLDVADSSDITGHDAVMLIGDPEYYNRFFGFSDEETGDWRLPGPVEKRRLLARLTSPRL | failed
MTTPFVLAVPSKGRLQENAEAFFARAGLTLSKLGGARDYRGTIAGLDNVEIAYLSASEIAAQLARGTVHLGITGEDLIRESIADADKKVALIEGLGFGGANVVVAVPQAWIDVRTMADLDDVTTGFRAQHNRRMRVATKYINLTRNFFAAHGVVDYRIVESAGATEGAPAVGTAEMIVDITSSGATLVANGLKVLDDGVILRSQANLVASRAADWSADALETARVILDRIAARARANKYKEVRTRFAGCDASLLTEAHNRFGVVSPFGGPTSSGMITLHCPPAQLYALGSFLRDHGADTVSIASLDYVLDRENPLFAKLESFLRQ | failed
MTTPLSPEATPPHGDLASGNVTRRILGIVVFNFIAYLSVGLPIAVVPGFVHGDLGYSAVLAGLAVSIQYLATLLSRPWAGSLCDMKGPKRSVLTGLLLCAGSGLLMLVAAQFAGNDWLALGWLLSSRLMLGAGESLVTTGTIAWGIGSVGARHTAKVISWNGVTTYGALAVGAPVGVLLAGHGGLTAIGIVTSVIAGASWLLARRQAAVPILKGERLPFRSVFRAMSPFGLCLGLGSVGFGAITAFITLYYAGHGWDHAALALTALGTCFVLTRLIMADSITRFGGYPVALVSFAVEAAGLAMLWLAQAPWQALAGAAVVGFGFSLVFPSLGIEAVKRVPATNRGSALGAYALFFDFSLGLTGPVAGLITKHAGYPAVYLFAALAAVLALVLSQVLAARYRDRLAPAT | failed
MTTPNFELYGYFRSSCSGRLRIAFHLKSIPYTRHPVNLLKGEQHSDTYKSLNPTNTVPLLVVSNINNTVSPSSASFSIGQSLAALEYLEEALPTNARPLLPPISNPVARAHVRTICNIIACDVQPVTNLKIQKKVKALDGDPTVWSRDLATQGFGAVEKLLELSAGRFCVGDEITLADVCLVPAVWAAERVGMDLARFPITKRVFEEMLKEEAVQKAHWQKQEDTPEDLRA | not failed
MTTRILTGITPTGTPHLGNYAGAIRPAILASRRSDVDSFYFLADYHALIKCDDPARIQRSRLEIAATWLAGGLDVERATFYRQSDIPEIPELTWLLTCVSAKGLLNRAHAYKAAVDRNVEAGEDPDAGVTMGLYSYPVLMAADILMFNAHKIPVGRDQVQHVEMARDIGQRFNHLFGNGREFFVLPEAVIEENVATLPGLDGRKMSKSYDNTIPLFSPSRQLKDAIARIVTDSRAPGEPKDPDSSHLFLLYSAFASAEQVAAFRQELLEGLAWGEAKQRLFQLLDNELGEARERYQALIAKPDDIEDILLAGAAKARRIATPFIAELREAVGLRSLREPLKSAESGKKKAAKAARLVSFRDDDGSFRFRLLDAAGEQLLLSRAFADGKAAGAVSKRLLAGETADLRAEGNAFGLWLDGEAVAQSPAFADAAARDAAIERTREALAPQ | failed
MTTTSSINERQVLKHLQAQLPDCLLLDRFHLKRRLQQVGAMLEQGKPVDKLMTELATKVQTSLQRRQLRQEQLPKPEYPAELPVSARKDEIAQAIAKHQVVIVSGETGSGKTTQLPKICLELGRGVAGLIGHTQPRRIAARSVASRIAQELKSPLGEAVGYKVRFNDRLSETTYIKLMTDGILLAETQGDRFLNAYDTIIIDEAHERSLNIDFLLGYLKQLLPRRPDLKVIVTSATIDAERFSRHFNGAPVIEVSGRTYPVEIRYRPLGSRRMVVAPPAPVAAPVPVVAQKEEAPQEDIIDIGIKRKAGNIDPSIRKWLEDDNDVEVLGQDIMGIQRKPRAEAKWLEEDDAEEAMEEAILDSVEQLSRLGGGDILVFLPGEREIRETADYLNKHLRHVEILPLFARLSIEDQQKVFRSSGGRRVVLATNVAETSLTVPGIKYVIDTGLARVNRYSARAKVEQLQVEKISQAAARQRAGRCGRVSNGICIRLYDEADFNHRPEFTDPEILRSSLAAVILRMAALKLGNVQDFPFIEAPSSRYIADGYQLLQELGAVDAEQNITDTGRQLARLPLDPRVSRMILEGKKQGCVREILIIASALAIQDPRERPMDKREAADQAHAKFNVEHSDFLGFIKLWEWYEDALKTKKSNKDLLNKCHSNFLSFLRLKEWRELYQQLREIAEELELKLNEQPASYEQVHRALLAGLLGNIGFKDGEADNYLGARGIRFHIAPGSTLKKARPKWVMAAELMETTKLYARCVARIEPDWIEPLARGLTQSHYSDPRWDRKAAQVVAWERVSLYGLTVVPRRRVHYGPINPQESREIFIREALANMEFDTRAPFFAANRKLIAEIEELEHKARRQDVLVDEHTLFAFYDAIIPAGIVNGAGFEKWRQEAERETPRLLYLTRDHLMRHGAAGVTEVQFPESLELDGVKLPLKYRFEPGHPLDGVTATVPLALLNQLNPVEAEWLVPGMIREKVTALIKALPKTLRRVCVPVPDFVTGFLETATRKDGALLPALASYIQQRTGLKLSASEWQADALDAHLYMNFRVVDEKNRELGSGRDWHALKAQLGQAAQLTFRSNSPGIEKAGLKQWDFGDLPPTLSFSRDGRQLTGYPALEDNGDSVAIKLFDTELAARQSHRAGVRRLMRFELKEQMKQLEKGLPGFNQYALQLRSIMSPEELREDMLVAISDRAFIGEDELPRNSQDFMALKARARTRLPAVVEGAGRLATAIATEYTQLTQKLNAAPASLSRVKKELEGQLARLLPKRFFSATPWDTLQHLPRYIKAMRLRLEKYPGAIERDTRSGQAVQQIWERWESHVQGLRKANQEVPPAVLDYRWLIEELRVSLFAQELKTPFPVSVKRLDKAWEDMVRA | failed
MTTVIVANDLVGFGKVALTSSLLPIMSACQTEVLPLPTVLLSSHTGEFDNIYVRYLTVDMQGFCGQWKRLDFRVDGLVGGYFKSEEELGLVSQCLTKKRFLFLLDPIMGDNGRLYQGFDRDYVEAMKDFCQQADVIIPNLTEAALLTGSPYLEEGSYDMTTIENLLRNLSRLGPRKVILTGISFETEKIGLAYFDKETNQVIYRMRKRYQSHFYGSGDLLTAILSAGYFHNLDFLKVCDLALDFLNKVLLFTLSSGRPLKYGLCYEPLYRLFILEHHHHHH | not failed
MTVDAATSAEVSQRVLAYLVEQLGVDVSFLRHNDRDRRATRLVAEWPPRLNIPDPDPLRLIYFADADPVFALCEHAKEPLVFRPEPATEDYQRLIEEARGVPVTSAAAVPLVSGEITTGLLGFIKFGDRKWHEAELNALMTIATLFAQVQARVAAEARLRYLADHDDLEHHHHHH | not failed
MTVDSNTSSGRGNDPEQIDLIELLLQLWRGKMTIIVAVIIAILLAVGYLMIAKEKWTSTAIITQPDAAQVATYTNALNVLYGGNAPKISEVQANFISRFSSAFSALSEVLDNQKEREKLTIEQSVKGQALPLSVSYVSTTAEGAQRRLAEYIQQVDEEVAKELEVDLKDNITLQTKTLQESLETQEVVAQEQKDLRIKQIEEALRYADEAKITQPQIQQTQDVTQDTMFLLGSDALKSMIQNEATRPLVFSPAYYQTKQTLLDIKNLKVTADTVHVYRYVMKPTLPVRRDSPKTAITLVLAVLLGGMIGAGIVLGRNALRSYKPKAL | not failed
MTVGASQQTSTIALHNDTGMLMSNLNIFKQPNAFYLIFSIEFWERFGFYGMQAILTVYMVKIMGMDESASFVLFGAFSALVYGFVAIGGWIGDKVIGTKRAITLGAIVMMVGYVLLGLSTADHPLVGPTLIYIAMGFITVGNGLFKANPSSLLAKIYPENDPRLDGAFTMYYMAINLGSFFSMIITPLVAIKMGYGMAFGVSAVGLAITVVNFLFCLRMLKGTGSPADLMPVNKMYLVLVAVGSIIASLVCSYLLQNLTLAHGILVVAGLFILGCYFKEAFSMSGIERAKMLVAFILMLQGVVFFVLYFQMPTSLNFFAINNVEHHIFGFDVAPEQFQALNPFWIMIASPILAATYGKLGDKLAMPFKFAFGMALCALSFLVLSWGTLFANEQGIISSNWLIASYAFQSIGELLVSGLGLAMVAQLVPQRMMGFAMGMWFLTSASAAVIAGWVASLTSTPANVSGATESLHIYGEVFAQIGYVTAGIAIVTFMIAPKLTRICRGESEPLELVTQ | failed
MTVIERFKSNLKGKQNLINFGFILIGLFGCYLLIAWASYSPLDNAWSTASSVTHDTVLNKTGKLGAWLIDLLYAFLGNVAFVVPFVLFSFAIYALIFRIAEQWKWRNLLLQIGSFILLLIGLSGIASVLLPNSAYYLAGGFVGGMLQSLLNGIIGQVGLLLLSTVLMSIGFYFCSGQLLFSLGIQFYQWLFIKKPQSNTILEAANPHLNAQNNETTKSIVANPSENAHVDQLVTHENATEQLTDVSAFTRPTIHGLKSSSTLNTDKTKYNQVNAQPLTDPMMFKIEKKVILPKINMQHPENELTNLSMEQTNSIDNLEIRLPKVHLNTAVTNPEIKTVEHHAQNRPLEMPTQIQPVFDQPITPTISLNVEDQPLDIESNEAQLAEEFAAAEQMRLANMEQRAKAEGLEETFNQIITSPTLTVSINESSEQPTEKDLNPTHHDNGANYPKGYGKTLLHPLLQRNNVVEKPTTPLPTLELLAKNPVQTQQITEQEIFDTSHRLENALANYNVKATVEDVLVGPVVTRYEIKPAAGIKANKVTALANDLARELMFKAIRITEVVPGKPYMGIETPNTHRQTVWLRDVLDSEAFRHTQATLPMALGKDISGQPIVVDMAKMPHLLVAGQTGGGKSVGINTMILSLLFKLTPEQVRFIMIDPKVVELSVYNDIPHLLTPVVTDMKKAANALRWAVGEMERRYLLISHLQVRNIEGYNDKIDQASAMNFPIPDPTWRPADSIGQLPPPLTKLSYIVLIVDEFADLIMSAGKEVEEYIMRIAQKARAVGIHLILATQRPSTDVITGVIKANIPSRIAFTVASQIDSRTILDAGGAEALLGRGDMLYSASGSPEIMRIHGAFMSDEEVQRIADNWRARGKPQYLDSVVASHEDENDSRTNTITELDPLFDEIVAYVIESGVTSISGIQRRFSLGFNRAGRIIDQMEAQAIISEPGKGGKREVLAR | failed
MTVITLMLVLFEVVFSVSIYRYYYNGIVQYIESHAKTSTRFFSEYNSLYFIRLQEYSGDIISSFQLEGTELQLIDRHGSVIQSSSGEKVEGKVNIPQSLLEGEMYNQVTTKGNKKQLEVLSPLIHQGQTIGVLKYTTVLTNVNKKIIEIITFTISVGIVISGVVFLISRRLANSFVEPIESIIQASSQIAEGTLKQKIKEDYPGELGDLAHSLNYMAYKIDKAEQMKNEFIASISHEIRTPLTGIKGWSETLKTVDHLTEEEIKQGMGIISGETDRLIHLVEELLDFSRLQSNHFNLYKQKVQLYDILEETIWQLTPKSEEKEIQFITTIDRMELMGDRNRLKQVFLNIVQNAIKYSHKKSTIHIEATKIEGQAVIKVRDEGIGIAKEHLPYIEQSFYQINNHAAGAGIGLAIVKKMVELHSGVLSVTSKEGIGTTILIKLPL | failed
MTVLKGDNLEILKTIESSSIDLIYMDPPFFTQKTQKLSNNKNIMYSFEDTWTSIEDYKEFLSVRLEECKRVLKNSGSIFVHCDKIANHHIRLILDNIFGVDMFQSEIIWNYKRWSNSKKGLLNNHQNIYFYSKSKDFKFNTIFTEYSSTTNIDQILVERKRDGNSKTIYKVDNNGNYILAKEKNGVPLSDVWNIPFLNPKAKERVGYPTQKPILLLEQIIKIATDKNDIVLDPFCGSGTTLVASKILNRNYMGIDLSEEAINITQQRLENVIKTSSNLLNKGIE | failed
MTVLSPSLPHAAGIDAALVENPWLGLRRSGRYFQNAETEALFARALGYARAGVCVHLAGPAGLGKTTLALRIAQALGRPVAFMTGNEWLGSRDFIGGEIGQTVTSVVDRYIQSVRRTEQSARIDWKESILGQAMRCGQTFIYDEFTRASPEANAALLSVLEEGVLVSTDGASRHQYIEAHPDFRVLLTSNPHEYQGVKAAPDALIDRMVTLRLEEPSAPTLAGIVALRSGLDPATARRIVDLILSVQRSGEMQAPPSMRTAILVARLAAPLRLAGRLSDAALAEIAADVLRGRGLEADAAAFEAKLAAPTPGETARLEHHHHHH | failed
MTVNVYDLANELERGIRALPEYQALVQAKAKIDEDEEAKKLWTEFTEFQMKIQGLIQTGQAPTPEVQTEMQSFNQKIEANPLLKEYATAQQALGVYVNDIERIIFSPLQDIAK | not failed
